From article PMC4131687 come the findings set out here.

What all share (settings): modification not given
The target of assay [1] is NaV1.4 (Rattus norvegicus), P15390.
Assay [2] deals with NaV1.2 (Rattus norvegicus), P04775.
The target of assay [3] is NaV1.7 (Rattus norvegicus), O08562.

In general, Kd refers to the equilibrium constant for the complex coming apart.

Sequence of NaV1.4 (Rattus norvegicus), P15390 (P15390 whole entry): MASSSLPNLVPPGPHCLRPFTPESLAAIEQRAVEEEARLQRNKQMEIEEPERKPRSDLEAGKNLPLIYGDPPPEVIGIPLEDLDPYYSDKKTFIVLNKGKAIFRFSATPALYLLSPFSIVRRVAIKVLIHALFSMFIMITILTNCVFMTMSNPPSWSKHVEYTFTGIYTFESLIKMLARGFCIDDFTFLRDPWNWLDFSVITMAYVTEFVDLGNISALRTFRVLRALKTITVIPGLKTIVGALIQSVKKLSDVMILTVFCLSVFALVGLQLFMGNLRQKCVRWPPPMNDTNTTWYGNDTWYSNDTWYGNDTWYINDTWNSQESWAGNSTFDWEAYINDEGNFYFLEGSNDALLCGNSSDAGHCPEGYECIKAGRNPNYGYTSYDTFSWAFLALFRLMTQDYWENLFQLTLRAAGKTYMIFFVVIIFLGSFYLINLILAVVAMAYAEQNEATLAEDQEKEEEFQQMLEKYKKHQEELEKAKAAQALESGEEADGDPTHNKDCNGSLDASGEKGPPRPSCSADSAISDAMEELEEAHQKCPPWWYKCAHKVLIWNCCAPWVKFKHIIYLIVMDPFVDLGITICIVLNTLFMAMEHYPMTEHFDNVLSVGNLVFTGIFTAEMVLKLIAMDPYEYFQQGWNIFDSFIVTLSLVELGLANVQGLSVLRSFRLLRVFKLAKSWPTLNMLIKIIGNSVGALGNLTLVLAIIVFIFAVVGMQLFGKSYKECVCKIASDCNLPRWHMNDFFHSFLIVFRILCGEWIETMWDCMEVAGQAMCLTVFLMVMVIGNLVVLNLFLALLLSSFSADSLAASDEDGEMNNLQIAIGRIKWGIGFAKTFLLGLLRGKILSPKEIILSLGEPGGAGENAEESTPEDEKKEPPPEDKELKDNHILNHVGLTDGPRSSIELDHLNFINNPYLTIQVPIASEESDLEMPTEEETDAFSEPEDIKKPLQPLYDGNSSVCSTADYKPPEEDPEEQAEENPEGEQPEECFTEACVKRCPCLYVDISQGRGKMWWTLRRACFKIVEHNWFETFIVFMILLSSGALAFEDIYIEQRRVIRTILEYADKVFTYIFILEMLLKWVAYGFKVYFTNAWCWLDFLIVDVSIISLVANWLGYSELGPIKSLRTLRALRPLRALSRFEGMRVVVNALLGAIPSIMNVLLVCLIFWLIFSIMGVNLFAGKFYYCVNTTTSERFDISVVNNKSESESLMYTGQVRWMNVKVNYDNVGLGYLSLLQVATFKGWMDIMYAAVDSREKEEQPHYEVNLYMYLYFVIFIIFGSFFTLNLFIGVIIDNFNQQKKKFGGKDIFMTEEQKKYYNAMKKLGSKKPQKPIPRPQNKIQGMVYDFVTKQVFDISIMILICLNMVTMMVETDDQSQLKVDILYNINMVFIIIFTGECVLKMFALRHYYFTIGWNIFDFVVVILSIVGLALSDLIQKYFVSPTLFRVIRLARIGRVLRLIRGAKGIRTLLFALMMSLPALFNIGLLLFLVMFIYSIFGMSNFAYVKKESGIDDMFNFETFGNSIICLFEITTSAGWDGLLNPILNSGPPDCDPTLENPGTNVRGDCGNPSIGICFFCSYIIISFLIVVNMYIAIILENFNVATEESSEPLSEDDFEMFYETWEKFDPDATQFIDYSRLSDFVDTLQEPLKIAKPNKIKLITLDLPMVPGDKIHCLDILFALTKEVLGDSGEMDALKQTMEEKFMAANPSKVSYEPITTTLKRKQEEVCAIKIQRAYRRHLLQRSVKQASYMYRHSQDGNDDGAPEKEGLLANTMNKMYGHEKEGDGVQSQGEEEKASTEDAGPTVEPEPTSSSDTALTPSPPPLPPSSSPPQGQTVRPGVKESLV
Sequence of NaV1.7 (Rattus norvegicus), O08562 (O08562 whole entry): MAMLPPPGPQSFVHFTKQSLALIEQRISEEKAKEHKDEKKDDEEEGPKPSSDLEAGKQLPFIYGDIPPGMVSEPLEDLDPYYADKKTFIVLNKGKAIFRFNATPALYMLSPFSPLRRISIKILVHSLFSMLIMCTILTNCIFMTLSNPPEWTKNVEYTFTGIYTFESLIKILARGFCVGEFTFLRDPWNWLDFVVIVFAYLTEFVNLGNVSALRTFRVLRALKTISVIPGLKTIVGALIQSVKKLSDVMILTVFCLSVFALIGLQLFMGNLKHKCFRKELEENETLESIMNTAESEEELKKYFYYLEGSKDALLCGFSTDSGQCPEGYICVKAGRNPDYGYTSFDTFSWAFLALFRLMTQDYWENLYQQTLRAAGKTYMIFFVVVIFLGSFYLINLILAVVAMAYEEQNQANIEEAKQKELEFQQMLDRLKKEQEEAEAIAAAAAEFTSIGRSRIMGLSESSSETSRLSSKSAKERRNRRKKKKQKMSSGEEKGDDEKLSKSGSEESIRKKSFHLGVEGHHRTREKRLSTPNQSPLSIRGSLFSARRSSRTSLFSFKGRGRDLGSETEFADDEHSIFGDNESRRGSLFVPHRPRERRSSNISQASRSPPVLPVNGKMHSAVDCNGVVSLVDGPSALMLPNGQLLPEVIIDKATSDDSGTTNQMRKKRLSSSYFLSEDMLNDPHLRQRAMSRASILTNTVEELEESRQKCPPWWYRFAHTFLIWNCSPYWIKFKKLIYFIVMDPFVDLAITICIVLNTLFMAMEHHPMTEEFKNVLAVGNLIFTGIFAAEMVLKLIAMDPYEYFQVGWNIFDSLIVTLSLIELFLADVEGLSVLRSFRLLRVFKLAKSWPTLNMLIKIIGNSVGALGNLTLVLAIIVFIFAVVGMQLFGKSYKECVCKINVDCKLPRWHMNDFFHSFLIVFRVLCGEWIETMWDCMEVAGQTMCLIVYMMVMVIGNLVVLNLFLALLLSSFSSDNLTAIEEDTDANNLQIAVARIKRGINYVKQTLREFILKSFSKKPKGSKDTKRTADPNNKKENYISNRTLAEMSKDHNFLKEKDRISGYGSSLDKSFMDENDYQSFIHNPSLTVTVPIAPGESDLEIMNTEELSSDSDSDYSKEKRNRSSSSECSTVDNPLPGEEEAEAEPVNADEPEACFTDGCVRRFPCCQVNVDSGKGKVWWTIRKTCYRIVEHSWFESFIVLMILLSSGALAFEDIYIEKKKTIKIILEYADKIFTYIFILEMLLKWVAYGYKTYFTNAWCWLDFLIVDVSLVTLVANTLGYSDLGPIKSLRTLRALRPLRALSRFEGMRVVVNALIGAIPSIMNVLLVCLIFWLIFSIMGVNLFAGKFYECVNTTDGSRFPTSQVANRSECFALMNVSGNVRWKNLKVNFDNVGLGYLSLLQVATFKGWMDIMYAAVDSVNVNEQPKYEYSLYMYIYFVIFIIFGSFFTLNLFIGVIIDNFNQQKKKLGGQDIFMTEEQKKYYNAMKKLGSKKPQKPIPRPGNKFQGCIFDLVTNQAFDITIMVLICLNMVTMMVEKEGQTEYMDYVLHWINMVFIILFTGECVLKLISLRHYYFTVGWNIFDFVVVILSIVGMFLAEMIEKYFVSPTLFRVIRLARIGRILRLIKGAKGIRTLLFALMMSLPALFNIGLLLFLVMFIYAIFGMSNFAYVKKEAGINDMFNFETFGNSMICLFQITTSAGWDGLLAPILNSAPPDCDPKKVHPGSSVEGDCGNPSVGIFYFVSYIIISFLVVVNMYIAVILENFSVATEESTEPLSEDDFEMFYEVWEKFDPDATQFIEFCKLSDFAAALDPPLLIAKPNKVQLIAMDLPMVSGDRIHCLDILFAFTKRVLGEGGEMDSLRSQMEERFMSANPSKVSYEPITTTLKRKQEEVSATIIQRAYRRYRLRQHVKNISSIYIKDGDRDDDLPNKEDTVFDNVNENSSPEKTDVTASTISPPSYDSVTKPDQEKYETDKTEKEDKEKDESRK

Take CCNCSSKWCRDHSRCC [μ-conotoxin KIIIA-P2, P0C195]: the Kd worked out at 830 nM in assay [1], 230 nM in assay [2] and 1570 nM in assay [3].
